Results: EP4499697A1 (dated 2025)

Experiments:
human FRα on cells [1] = target: T1, human FRα on cells (human, UniProt P15328 25-234); assay: cell-based or functional assay
human FRα on cells [2] = target: T1, human FRα on cells; assay: flow cytometry on IGROV-1 cells (endogenous FRα), apparent Kd

T1 sequence (P15328 25-234): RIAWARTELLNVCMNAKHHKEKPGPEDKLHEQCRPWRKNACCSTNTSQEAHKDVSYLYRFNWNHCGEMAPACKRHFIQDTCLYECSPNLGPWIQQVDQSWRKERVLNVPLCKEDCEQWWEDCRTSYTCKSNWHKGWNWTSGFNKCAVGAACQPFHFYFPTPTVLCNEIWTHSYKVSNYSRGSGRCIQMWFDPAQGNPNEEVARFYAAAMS

internalized fluorescence relative to v30384, 25 nM, 5-hour incubation, IGROV-1 cells (human FRα on cells [1]): 0.5 fold
Kd (human FRα on cells [2]): 0.69 nM
B1: mirvetuximab (v17716) (antibody, V domains shown)
VH: QVQLVQSGAEVVKPGASVKISCKASGYTFTGYFMNWVKQSPGQSLEWIGRIHPYDGDTFYNQKFQGKATLTVDKSSNTAHMELLSLTSEDFAVYYCTRYDGSRAMDYWGQGTTVTVSS
VL: DIVLTQSPLSLAVSLGQPAIISCKASQSVSFAGTSLMHWYHQKPGQQPRLLIYRASNLEAGVPDRFSGSGSKTDFTLTISPVEAEDAATYYCQQSREYPYTFGGGTKLEIK
